Measured values taken from PMC8482512, “Aim32 is a dual-localized 2Fe-2S mitochondrial protein that functions in redox quality control” (The Journal of Biological Chemistry, 2021).

T1: Aim32 with a C-terminal FLAG tag (Aim32-FLAG) (S. cerevisiae, UniProt Q04689 1-311)
T1 construct: Aim32, S. cerevisiae, PCR-amplified from genomic DNA of strain GA74-1A; also called pAIM32-FLAG; pAIM32; source: S. cerevisiae Δaim32 strain transformed with [pAIM32-FLAG]; (GPD promoter), mitochondrial lysate; not shown: 3XFLAG, C-terminal, kept
T1 sequence (looked up): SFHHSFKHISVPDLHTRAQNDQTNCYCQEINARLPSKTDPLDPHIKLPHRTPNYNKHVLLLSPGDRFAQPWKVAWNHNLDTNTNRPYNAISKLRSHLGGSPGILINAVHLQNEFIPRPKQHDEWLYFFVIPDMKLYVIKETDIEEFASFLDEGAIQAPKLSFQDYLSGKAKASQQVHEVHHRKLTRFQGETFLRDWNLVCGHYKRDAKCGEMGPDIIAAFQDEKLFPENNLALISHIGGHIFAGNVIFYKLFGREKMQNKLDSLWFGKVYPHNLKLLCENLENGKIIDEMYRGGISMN


What was measured:
[1] = molecular target: Erv1 with a C-terminal histidine tag (Erv1-His) (S. cerevisiae) (UniProt P27882); test: pull-down; mitochondria of His-tagged strains solubilized in 1% digitonin, 500 μg lysate incubated with Ni2+-agarose beads, washed, eluted, immunoblot; untagged WT strain as control
[2] = molecular target: Osm1 with a C-terminal histidine tag (Osm1-His) (S. cerevisiae) (UniProt P21375); test: as above
[3] = molecular target: T1, Aim32 with a C-terminal FLAG tag …; test: co-IP; mitochondrial lysate of Δaim32 [pAIM32-FLAG], ANTI-FLAG M2 affinity gel (FLAG-resin), immunoblot with the indicated antibodies; details: partners not purified

Sequence of Erv1 with a C-terminal histidine tag (Erv1-His) (S. cerevisiae) (P27882 whole entry): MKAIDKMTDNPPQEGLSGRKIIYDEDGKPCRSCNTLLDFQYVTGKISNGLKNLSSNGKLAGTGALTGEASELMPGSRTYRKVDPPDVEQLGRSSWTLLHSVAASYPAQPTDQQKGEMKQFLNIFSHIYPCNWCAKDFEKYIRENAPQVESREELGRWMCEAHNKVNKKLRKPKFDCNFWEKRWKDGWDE
Sequence of Osm1 with a C-terminal histidine tag (Osm1-His) (S. cerevisiae) (P21375 33-501): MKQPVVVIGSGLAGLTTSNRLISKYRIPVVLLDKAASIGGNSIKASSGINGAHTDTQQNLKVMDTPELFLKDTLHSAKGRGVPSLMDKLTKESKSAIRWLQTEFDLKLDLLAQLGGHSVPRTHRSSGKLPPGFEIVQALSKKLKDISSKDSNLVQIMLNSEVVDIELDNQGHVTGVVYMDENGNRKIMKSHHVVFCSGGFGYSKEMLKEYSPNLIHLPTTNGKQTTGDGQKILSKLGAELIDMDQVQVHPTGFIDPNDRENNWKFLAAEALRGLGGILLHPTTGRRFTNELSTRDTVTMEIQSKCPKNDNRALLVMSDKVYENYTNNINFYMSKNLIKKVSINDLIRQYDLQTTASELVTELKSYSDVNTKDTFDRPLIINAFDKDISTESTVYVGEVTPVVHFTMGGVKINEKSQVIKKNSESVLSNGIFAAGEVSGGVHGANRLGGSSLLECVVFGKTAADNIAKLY

| Molecule | fraction copurified [1] | fraction copurified [2] | fraction copurified [3] |
| --- | --- | --- | --- |
| Altered inheritance of mitochondria 32 (Aim32) (from UniProt Q04689 1-311) (natural protein) | 10% | 5% |  |
| Tim22 (natural protein, UniProt Q12328 1-207, looked up, Tim22, component of the TIM22 translocon, S. cerevisiae; source: endogenous, S. cerevisiae mitochondrial lysate) MVYTGFGLEQISPAQKKPYNELTPEEQGERGAEMIMNFMTSCPGKSVVSGVTGFALGGVLGLFMASMAYDTPLHTPTPANTAATATAGNIGVGGISRTVQQISDLPFRQQMKLQFTDMGKKSYSSAKNFGYIGMIYAGVECVIESLRAKNDIYNGVTAGFFTGAGLAYKAGPQAALMGGAGFAAFSAAIDLYMKSEDGRPPQNDFKE |  |  | ~10% |
| Tim23 (natural protein, UniProt P32897 1-222, looked up, Tim23, component of the TIM23 translocon, S. cerevisiae; source: endogenous, S. cerevisiae mitochondrial lysate) MSWLFGDKTPTDDANAAVGGQDTTKPKELSLKQSLGFEPNINNIISGPGGMHVDTARLHPLAGLDKGVEYLDLEEEQLSSLEGSQGLIPSRGWTDDLCYGTGAVYLLGLGIGGFSGMMQGLQNIPPNSPGKLQLNTVLNHITKRGPFLGNNAGILALSYNIINSTIDALRGKHDTAGSIGAGALTGALFKSSKGLKPMGYSSAMVAAACAVWCSVKKRLLEK |  |  | ~10% |
| Tim50 (natural protein, UniProt Q02776 44-476, looked up, Tim50, component of the TIM23 translocon, S. cerevisiae; source: endogenous, S. cerevisiae mitochondrial lysate) QKETKDDKPKSILTDDMLFKAGVDVDEKGQGKNEETSGEGGEDKNEPSSKSEKSRRKRQTSTDIKREKYANWFYIFSLSALTGTAIYMARDWEPQESEELKKDIDNGYTLSLMYKRFKARFNSMFTYFQEPPFPDLLPPPPPPPYQRPLTLVITLEDFLVHSEWSQKHGWRTAKRPGADYFLGYLSQYYEIVLFSSNYMMYSDKIAEKLDPIHAFVSYNLFKEHCVYKDGVHIKDLSKLNRDLSKVIIIDTDPNSYKLQPENAIPMEPWNGEADDKLVRLIPFLEYLATQQTKDVRPILNSFEDKKNLAEEFDHRVKKLKDKFYGDHKSGGNWAMTALGLGNSLGGSTKFPLDLIHEEGQKNYLMFMKMIEEEKEKIRIQQEQMGGQTFTLKDYVEGNLPSPEEQMKIQLEKQKEVDALFEEEKKKKKIAESK |  |  | ~10% |

Now from value to molecule:

| fraction copurified [1] | fraction copurified [2] | fraction copurified [3] | Molecule |
| --- | --- | --- | --- |
|  |  | ~10% | Sod2 (enzyme, UniProt P00447 27-233, looked up, Sod2, matrix antioxidant (superoxide dismutase), S. cerevisiae; source: endogenous, S. cerevisiae mitochondrial lysate) KVTLPDLKWDFGALEPYISGQINELHYTKHHQTYVNGFNTAVDQFQELSDLLAKEPSPANARKMIAIQQNIKFHGGGFTNHCLFWENLAPESQGGGEPPTGALAKAIDEQFGSLDELIKLTNTKLAGVQGSGWAFIVKNLSNGGKLDVVQTYNQDTVTGPLVPLVAIDAWEHAYYLQYQNKKADYFKAIWNVVNWKEASRRFDAGKI |
|  |  | ~10% | Tim17 (natural protein, UniProt P39515 1-158, looked up, Tim17, component of the TIM23 translocon, S. cerevisiae; source: endogenous, S. cerevisiae mitochondrial lysate) MSADHSRDPCPIVILNDFGGAFAMGAIGGVVWHGIKGFRNSPLGERGSGAMSAIKARAPVLGGNFGVWGGLFSTFDCAVKAVRKREDPWNAIIAGFFTGGALAVRGGWRHTRNSSITCACLLGVIEGVGLMFQRYAAWQAKPMAPPLPEAPSSQPLQA |
